Results on 16 sequences are retold here after the nanobody polyreactivity screen of Harvey et al. (2022).

A short description of this data set: yeast display, Sf9 membrane polyspecificity reagent, FACS + sequencing; frameworks hold sequencing errors. In short, it runs like this:
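Nanobodies from a synthetic yeast display library (Saccharomyces cerevisiae BJ5465), induced 36–48 hours with galactose, were stained 1 hour at 4 °C with 10% biotinylated, detergent-solubilized Sf9 membrane reagent, enriched on streptavidin microbeads, then FACS-sorted. Anti-HA (expression) and streptavidin (reagent binding) fluorescence set low and high (top ~1%) gates. Polyreactivity labels come from the gate of origin. Genes were colony-PCR amplified, MiSeq 2 × 250 sequenced and filtered by CDR length.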
As for “QVQLQESGGGLLLAGGSLRLSCSASGNISVYGSMGWYRQAPGKEREFVATIDPGTNTNYADSVKDRFTISRDNAKNTVYLQMNSLKPEDTAVYYCAVEAGSDWPYRYWGQGTQVTVSS”, the “polyreactivity (PSR sort gate)” value is reported as “low polyreactivity”.

For “QVQLVESGGGLVQAGGSLRLSCAASGIIFYPYAMGWYRQEPGKERYLVASISSGGDTNYADSVKGRFTISRDNAKNTVYLQMNSLKPEDTAVYYCAARVRVQYWWEYYYWGQGTQVTVSS”, the “polyreactivity (PSR sort gate)” value is “high polyreactivity”. The entry for “QVQLVESGGGLVQAGGSLRLSCAASGSTFKRYAMGWYRQAPAKERELVASISSGGSTNYADSVKGRFTISRDNAKNTVYLQMNSLKPEDTAVYYCNAVYYCYKGDYWGQGTQVTVSS” is “high polyreactivity”. Take “QVQLVESGRGLVQAGGSLRLSCAASGITFGWYAMGWYRQPPGKATELVASISSSGSTNYADSVKGRFTNSRDNAKNTVYLQMNSLKPEDTAVYYCNKDYLLRHYYIYVIEGDYWGQGTQVTVSS”: the “polyreactivity (PSR sort gate)” value is recorded as “low polyreactivity”. In the case of “QVQLVESGGGLVQAGGSLRLSSAASGSTLYRYAMGWYRQAPGKERELVAAISRSGGNTYYADSVKGRFTISRDNAKNTVYLQMNSLKPEDTAVYYCNADSFIRYDYWGQGTQVTVSS” it was “high polyreactivity”.

As to “QVQLVESGGGLVQAGGSLRLSCAASGRIFARYAMGWYRQAPGKERELVAAITNVGSTYADSVKGRFTISRDNAKNTVYLQMNSLKPEDTAVYYCAARSKYDQVRATFWLFDYWGQGTQVTVSS”, the “polyreactivity (PSR sort gate)” value is given as “low polyreactivity”. The entry for “QVQLVESGGGVLQAGGSLRLSCAASGRTFCFYAMGWSRQAPGKERELVASITWRGGRTYYADSVKGRFTISRDNAKNTVYLQMNSLKPEDTAVYYCAAVTFSYDGYDYWGQGTQVTVSS” is “low polyreactivity”; for “QDQLVESGGGLVQAGGSLRLSCAASGSTFEVYAMGWYRQAPGKERELVAGITRGGSTNYADSVKGRFTISRDNAKNTVYLQMNSLKPEDTAVYYCAAPKYLGTDEYDYWGQGTQVTVSS” it is “low polyreactivity”; for “QVQLVESGGGLVQAGGSLRLSCAASGITFKYYAMGWYRQAPGKERELVAAITSGTRTNYADSVKGRFTISRDNAKNTVYLQMNSLKPEDTAVYYCAKVGSWYTSHRFGYWGHGTQVTVSS” it is “high polyreactivity”. The entry for “QVQLVESGGGLVQAGGSLRLSCAASGRIFVYYAMGWYRQAPGKEREFVAAISSRDDSTYYADSVKGRFTISRDNAKNTVYLQMNSLKPEDTAVYYCAADWRLGVGYDYWGQGSQVTVSS” is “low polyreactivity”; for “QVQLVESGGRLVQAGGSIRLSCAASGRIFGAYAMGWYRQAPGKERELVAAITQSGGSTFYADSVKGRFTISRDNAKNTVYLQMNSLKPEVTAVYYWGQGTQVTVSS” it is “low polyreactivity”. The entry for “QVQLVESGGGLVQAGGSLRLSCAASGRNFRWYAMGWYRQAPGKERELVAAITRGDITNYADSVKGRFTISRDNAKKTVYLQMNSLKPEDTAVYYCNAQWYDIYDYWGQGTQVTVSS” is “high polyreactivity”. Consider “QVQLVESGGGLVQAGGSLRLSCAASGRTFKWYAMGWYRQAPGKERELVAAISSSGSTYYADSVKGRFTISRDNAKNTVYLQMNSLKPEDTAVYYCAVLRRYLVGNLVGYNYWGQGTQVTVSS”, for which the “polyreactivity (PSR sort gate)” value was “high polyreactivity”.

For the sequence “QVQLVESGGGLVQAGGSLRLSCAASGSNFSGNAMGWYRQAPGKERELVAAISRRGGRTYYADSVKGRFTISRDNAKNTVYLQMNSLIPEDTAVYYCNADSVRYDYSAYDYEYWGQGTQVNVSS”, the “polyreactivity (PSR sort gate)” value is on record as “high polyreactivity”. In the case of “QVQLVESGGGLVQAGGSLRLSCAASGFTFKGYAMGWYRQAPGKERELVAAITRGGSTYYADSVKGRFTISRDNAKNTVYLQMNSLKPEDTAVYYCAARGRGHGTTPNDYWGQGTQVTVSS” it was “high polyreactivity”; in that of “QVQLVESGGGLVQAGGSLRLSCAASGSTFQNYAMGWYRQAPGKERELVATINWSGGNTYYADSVKGRFTISRDNAKNTVYLQMNSLKPEDTAVYYCAADSPRYYYWVGPYYGYDYWGQGTQVTVSS”, “high polyreactivity”.
